The values that follow come from US20240293459A1 (published 2024).

Test in all cases: multimer staining
Assay [1] deals with T1, SARS-CoV-2 NSP13 helicase; peptide NSP13-242 peptide on HLA-A*02:01 (human).
T1 peptide: TLVPQEHYV

In assay [2] the target is T2, SARS-CoV-2 NSP13 helicase; peptide NSP13-400 peptide on HLA-A*24:02 (human).
T2 peptide: VYIGDPAQL

In assay [3] the target is SARS-CoV-2 NSP13 helicase; peptide NSP13-448 peptide on HLA-A*01:01 (human).

B1: NSP13-242 TCR (TCR, V domains shown)
Valpha: AQTVTQSQPEMSVQEAETVTLSCTYDTSENNYYLFWYKQPPSRQMILVIRQEAYKQQNATENRFSVNFQKAAKSFSLKISDSQLGDTAMYFCAFMNSNNARLMFGDGTQLVVKP
Vbeta: DAGITQSPRYKITETGRQVTLMCHQTWSHSYMFWYRQDLGHGLRLIYYSAAADITDKGEVPDGYVVSRSKTENFPLTLESATRSQTSVYFCASSPGSVPGGYTFGSGTRLTVV
As to B1, the binding result in assay [1] is given as “recognises”.

B2: NSP13-400 TCR (TCR, V domains shown)
Valpha: RKEVEQDPGPFNVPEGATVAFNCTYSNSASQSFFWYRQDCRKEPKLLMSVYSSGNEDGRFTAQLNRASQYISLLIRDSKLSDSATYLCVVKDSWGKLQFGAGTQVVVTP
Vbeta: DARVTQTPRHKVTEMGQEVTMRCQPILGHNTVFWYRQTMMQGLELLAYFRNRAPLDDSGMPKDRFSAEMPDATLATLKIQPSEPRDSAVYFCASGPSGGWNTIYFGEGSWLTVV
As to B2, in assay [2], the binding result is reported as “recognises”.

B3: NSP13-448 TCR (TCR, V domains shown)
Valpha: AQSVTQLGSHVSVSEGALVLLRCNYSSSVPPYLFWYVQYPNQGLQLLLKYTSAATLVKGINGFEAEFKKSETSFHLTKPSAHMSDAAEYFCAVSNSGGGADGLTFGKGTHLIIQP
Vbeta: DGGITQSPKYLFRKEGQNVTLSCEQNLNHDAMYWYRQDPGQGLRLIYYSQIVNDFQKGDIAEGYSVSREKKESFPLTVTSAQKNPTAFYLCASSIMAGGHGELFFGEGSRLTVL
Consider B3, for which, in assay [3], the binding result is given as “recognises”.
